Assay [1] has as its target mini-procollagen III. As to the kind of experiment: SPR; Biacore T200; mini-procollagen III immobilised (240 RU), C1C2 wild-type or mutants injected, 50 μL/min, 25°C, 10 mM Na-Hepes pH 7.4, 0.15 M NaCl, 5 mM CaCl2, 0.05 % P20; 1:1 binding model. (In general: In SPR one partner is held on a chip, and binding of the other changes the refractive index at the surface.)
Assay [2] deals with mini-procollagen III. As to the kind of experiment: SPR. To be noted: immobilized mini-procollagen III (240 RU), flow rate 50 μL/min, 25°C; for Kd: 1:1 binding model, parent: est. 1.4 nM, read off a plot.

Here are results for 6 substances from paper PMC6372009.

As usually defined, the Kd is a measure of binding affinity in units of concentration.

In the assay with mini-procollagen III [1], “C1C2 fragment of PCPE-1, Arg91Ala mutant (pCEP-Pu construct) (from UniProt Q15113 1-252) (domain or fragment)” yielded a fold increase in dissociation constant against wild-type C1C2 of 50 fold.

For “C1C2 fragment of PCPE-1, wild-type control, pCEP-Pu construct (N-terminal APLA, C-terminal …) (from UniProt Q15113) L234E”, the Kd in the assay with mini-procollagen III [2] was 20 nM.

For the substance “C1C2 fragment of PCPE-1, wild-type control, pCEP-Pu construct (N-terminal APLA, C-terminal …) (from UniProt Q15113) R55A”, the response with mini-procollagen III [2] (48 nM C1C2, response at end of association (about 100 s), parent: est. 29, read off a …) stood at 26 RU. For the same substance, in the assay with mini-procollagen III [2], the Kd was found to be 2.6 nM.

For the substance “C1C2 fragment of PCPE-1, wild-type control, pCEP-Pu construct (N-terminal APLA, C-terminal …) (from UniProt Q15113) R55A; L234E”, the dissociation constant (Kd) with mini-procollagen III [2] came out at 54 nM.

On to “C1C2 fragment of PCPE-1, wild-type control, pCEP-Pu construct (N-terminal APLA, C-terminal …) (from UniProt Q15113) R55A; R91A; L234E”, for which the Kd with mini-procollagen III [2] was found to be 120 nM.

For “C1C2 fragment of PCPE-1, wild-type control, pCEP-Pu construct (N-terminal APLA, C-terminal …) (from UniProt Q15113) R91A”, the Kd with mini-procollagen III [2] worked out at 61 nM.
